According to PMC5911420 (DNA repair, 2018):
Read-outs that look alike come from different tables or passages of the source.

Assays:
Assay in all cases: SEC-MALS
SEC-MALS = target: the molecule itself
[1] = target: T1, full-length NEIL1 DNA glycosylase, His-tagged (human, UniProt Q96FI4 1-390)
[2] = target: T1, full-length NEIL1 DNA glycosylase, …; remark: listed apart in the source

T1 sequence (Q96FI4 whole entry): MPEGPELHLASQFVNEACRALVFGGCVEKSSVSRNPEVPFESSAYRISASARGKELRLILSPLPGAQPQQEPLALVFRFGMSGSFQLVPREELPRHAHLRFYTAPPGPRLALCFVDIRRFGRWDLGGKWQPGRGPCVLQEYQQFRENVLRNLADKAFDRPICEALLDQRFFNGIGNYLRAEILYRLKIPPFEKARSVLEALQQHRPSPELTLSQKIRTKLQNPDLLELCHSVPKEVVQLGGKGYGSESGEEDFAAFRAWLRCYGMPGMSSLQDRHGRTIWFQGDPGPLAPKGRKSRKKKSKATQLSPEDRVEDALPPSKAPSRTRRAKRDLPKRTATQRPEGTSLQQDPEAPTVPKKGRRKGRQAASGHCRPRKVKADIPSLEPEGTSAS

B1: human mitochondrial single-stranded DNA binding protein, purified recombinant (natural protein, UniProt Q04837 17-148, looked up)
chain: ESETTTSLVLERSLNRVHLLGRVGQDPVLRQVEGKNPVTIFSLATNEMWRSGDSEVYQLGDVSQKTTWHRISVFRPGLRDVAYQYVKKGSRIYLEGKIDYGEYMDKNNVRRQATTIIADNIIFLSDQTKEKE
stoichiometry N (SEC-MALS): 4 | stoichiometry N [1]: 1 mtSSB monomer per NEIL1 | stoichiometry N [2]: 1 mtSSB tetramer per NEIL1 (with one DNA)
